{"source": "paper PMC3776922", "target": "LAT-1(37-542)^GPS(T530A)::6xHis (C. elegans)", "assay": "AUC; sedimentation equilibrium of the dimer fraction of the LAT-1 ectodomain; 20 uM - 60 uM protein, native conditions in PBS, 20°C / room temperature, 48 hr at 17,000 and 20,000 rpm, ideal monodisperse model"}
{"substance": "LAT-1(37-542)^GPS(T530A)::6xHis (domain or fragment)", "values": [{"measurement": "stoichiometry N", "value": 2}]}
